From the DeepSol protein solubility set

Experiment: soluble on expression in E. coli; label from the status in PepcDB or PDB records

Sequence	soluble on expression in E. coli
MGYLVSKHLALSLGSSKRGYILSPIMPPVVIVEDDGPGYPFDIYYSEGKRVLTIVHRANPEREVQDEYLHTLSLWLREMGVGRVILVGGLNMEFMPREEKHGYRWLANRHYKGPKLEAPTMEAGLGVVGPLALLYMYLDYLGVPAAMVLPYSVAERVDYEAAIRGLKVIGGSIIGVEIPTDEIEKMASMQREILETISRMIEGEEEKESGGIYM	not soluble
MSLKSTDIKIVEAKFSTEEVPFRTPLKFGGRVMDSSVLLNVEVIVETRNGKQGIGIGSMPAGNIWAWPSAVVSPEDSLKAMIEFLKEAVEIANICPEVAHPIDLMYHISAEYHFMAKKLSKRLGLAEEIPELAQLVASSPLDAAIHDGFGRANHINSYNGLSAEYMSHDLTEYLDDQFKGEYLDQYTLRDPKPTLPLYHLVGALDPITEADISERVDDGLPETLGEWIKADGLTHLKIKLSGDNMDWDISRVIAVENEAVKAQGERGQDKWVYSLDFNEKCENVDYVLDFLNKIREQTPAAFDRVQYIEQPTNRDLKANPENKMHEAAKIKPVVIDESLVDYESLLLSRELGYSGVALKACKGQTESLFLGAAAQKFDMFLCVQDLTCCGYSFLHSASLAARIPSIAAIEGNGRQYCPGPNKKWKRSYPGMFNITDGTVKTSELNGDGLGFEGHHHHHH	soluble
MAHHHHHHMEAETSKISEVPLPIPIGINGFGAVGRAVLFASMTEPQVTVVAVNDFSVSINYVLYVLQNESPLSAEDKASLTVVGEYIFYRGTERIRVTQKHDLVDIAWRDAGVSYVVECTGFTSTRDRCWGHLTSGARGVLVAGQSGDAPAIVAGVNDSDLSKIQPIICSGAPLAVALAPFIRILHESFGVEDCSYTAIHAIQPVEPNAARSANSQDWRQTRVTLDSITPYAHTGMTTFCKLMPTLSSRITGSAFQVPVTKGCAIDMLLRFKQPVAKESVDEALIEASKDRLKDVLFVSKRDFISRDLLPDGKLCYDPSASQCVREGELYKFTLWFDLERSFAKRLISLIPVMNDADAKKNNV	soluble
MAPMFGVSFDFDPDFSLLSNKTHKSRNPKPPVKLLPYRHGSNTTSSDSDSYTSDLDLPTMRLHHQWLRSPSRSKMCCSTGSSSISQSIHRA	not soluble
STDISTVASPLFEGTEGCFLLYDASTNAEIAQFNKAKCATQMAPDSTFKIALSLMAFDAEIIDQKTIFKWDKTPKGMEIWNSNHTPKTWMQFSVVWVSQEITQKIGLNKIKNYLKDFDYGNQDFSGDKERNNGLTEAWLESSLKISPEEQIQFLRKIINHNLPVKNSAIENTIENMYLQDLDNSTKLYGKTGAGFTANRTLQNGWFEGFIISKSGHKYVFVSALTGNLGSNLTSSIKAKKNAITILNTLNL	soluble
MSLTEPRIVATYHIASDAERIEQRALALAIEQSVECPLEAIGDPAIVANIVGRVEDVAELQPGRYAVRIGLAAATAPAEPGQLLNMLFGNSSIQPDIALADVELPAHYLTAFGGPRVGLAGIRTLTGAQSRALTASALKPQGLSPAALASIAHQLALGGVDLIKDDHGLADQAFSPFAERAAAVGKAVREANAARGGRTLYAPNISGTLDDMRRQLGVIRDEGIGAVLVAPMIVGVSNFHAIVKEAAGLVVVAHPAMAGAAKIAAPLLLGRLFRLFGADATVFPNYGGRFAYSTASCLALAQAARDPFGKLNACIPTPAGGIMLQRVNELLRFYGQDVMLLIGGSLLASRERLTEQASRFVNKVADYGQREGHHHHHH	soluble
MGSDKIHHHHHHKVEDLVQIATALEVDTIVLNDELSPSQLTNLEKETNLHFIDRTGLILEIFANRAHSREAKLQVELAKLQYQLPRLRTSSTQRLDQQTAGNTGGGFTNRGSGETKLELNRRTIRNKINHINKELKEMTTSSDIQRKQRDKKDIPSVALVGYTNTGKSTTMNGLVRMYGRNEDKQVFEKDMLFATLDTSVRKLTFPDQKELVLSDTVGFVSHLPHQLVKAFRSTLAEAAKADLLVQIVDISDPHYREMMQTTEDTLNEIGVTDIPMIYAFNKADLAGVSYPTLDGNELTYSAKQLQSLEMVTALIKKQVFKNYVEAKFLIPFNEGQVVDFLNGNADVKKTDYTEEGTEITAELKEKDYQRLARYVIQ	not soluble
MGSDKIHHHHHHMRVILAPMQGVLDPFVRELLTEVNDYDLCITEFVRVVDQLLPEKVFYRLCPELKNQGFTSSGTPVRVQLLGQHPKCLAENAIRAIDLGSHGIDLNCGCPSKTVNGSNGGAALLKQPELIYRATQALRRAVPSEFPVSVKVRLGWDDISQAFEIADAVEQGGATEITVHGRTKADGYRADRINWKKISEVRERLSIPVIANGEIWHWQDGQDCLSQTGCQDLMVGRGALNIPNLSHVLKSNAEKMPWYEIQKILQKYANVENEYDSGFYHVARIKQWLRYLNKEYNEANQVFDKIKTCQTAEDLKLRLNEK	not soluble
